According to paper PMC9843055, “Karyopherin α deficiency contributes to human preimplantation embryo arrest” (The Journal of Clinical Investigation, 2023):

Target: T1, human KPNA7 (karyopherin subunit α7), WT, purified, GST cleaved (human, UniProt A9QM74 1-516)
T1 construct: karyopherin subunit α7 (importin α8), human; also called hKPNA7; importin α8; source: E. coli BL21 (DE3) plysS, purified (glutathione Sepharose, GST tag cut with PreScission protease)
Assay: pull-down; GST-SV40TNLS-GFP or GST-RSL1D1-GFP held on GST beads (4°C, 1 h, transport buffer with 0.1% Triton X-100), then cleaved WT or mutant KPNA7 at 4°C for 2 h; Western blotting
Settings: both partners purified

T1 sequence (A9QM74 whole entry): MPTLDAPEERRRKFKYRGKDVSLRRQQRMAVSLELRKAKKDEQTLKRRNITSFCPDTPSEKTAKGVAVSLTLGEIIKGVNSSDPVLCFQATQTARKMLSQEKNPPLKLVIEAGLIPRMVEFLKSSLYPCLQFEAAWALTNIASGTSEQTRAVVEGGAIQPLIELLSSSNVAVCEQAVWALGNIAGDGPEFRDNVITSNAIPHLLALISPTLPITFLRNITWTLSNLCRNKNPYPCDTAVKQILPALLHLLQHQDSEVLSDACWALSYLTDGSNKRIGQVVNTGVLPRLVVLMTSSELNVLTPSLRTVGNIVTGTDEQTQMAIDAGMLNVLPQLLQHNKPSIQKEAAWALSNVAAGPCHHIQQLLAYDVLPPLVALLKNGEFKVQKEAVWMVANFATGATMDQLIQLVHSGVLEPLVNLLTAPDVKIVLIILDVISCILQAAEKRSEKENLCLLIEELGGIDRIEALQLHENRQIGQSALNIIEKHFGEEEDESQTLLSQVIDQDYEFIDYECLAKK

B1: GST-SV40TNLS-GFP (other)
chain: PKKKRKV
notes: nuclear localization signal of the SV40 large T antigen (SV40TNLS), between GST and GFP; source: E. coli BL21 (DE3) plysS, purified (glutathione Sepharose); not shown: GST, N-terminal, kept; GFP, C-terminal, kept
- binding result: binds
